From PMC12098869, “An mRNA-display derived cyclic peptide scaffold reveals the substrate binding interactions of an N-terminal cysteine oxidase” (Nature Communications, 2025)
“And” between values parts separate entries of the source, which are not always exact repeats. Equal entries are not always repeated.

Assays:
Test in all cases: SPR; biotinylated ADO or ADO mutant immobilised on a Biotin CAP chip (~2500-3000 RU), substrate peptide injected; Biacore T200, 4 °C; 20 mM HEPES pH 7.5, 500 mM NaCl, 10 mM DTT, 0.1% tween-20; 50 µL/minute; multi-cycle or single-cycle mode not given; each cell is one of three independent measurements
Conditions in all cases: both partners purified
[1] = target: T1, ADO-Y87A, N-terminally His-tagged and biotinylated (human, UniProt Q96SZ5 1-270, Y87A, biotin (biotinylated during expression))
T1 construct: 2-aminoethanethiol dioxygenase (ADO), human, UniProt Q96SZ5, full length, site-directed mutant; source: E. coli Rosetta2(DE3), purified (Ni-NTA, SEC); not shown: biotinylation tag (from the vector pQE80L-Navi), N-terminal, kept
T1 sequence (looked up): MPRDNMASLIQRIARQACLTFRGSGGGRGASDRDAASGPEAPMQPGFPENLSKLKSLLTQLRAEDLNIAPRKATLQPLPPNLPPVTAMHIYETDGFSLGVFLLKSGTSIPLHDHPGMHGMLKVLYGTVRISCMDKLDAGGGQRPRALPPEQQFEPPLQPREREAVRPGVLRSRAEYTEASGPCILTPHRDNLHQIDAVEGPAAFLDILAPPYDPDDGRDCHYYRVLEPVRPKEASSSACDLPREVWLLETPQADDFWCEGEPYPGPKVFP

[2] = target: T2, ADO-I109A, N-terminally His-tagged and biotinylated (human, UniProt Q96SZ5 1-270, I109A, biotin (biotinylated during expression))
T2 construct: 2-aminoethanethiol dioxygenase (ADO), human, UniProt Q96SZ5, full length, site-directed mutant; source: E. coli Rosetta2(DE3), purified (Ni-NTA, SEC); not shown: biotinylation tag (from the vector pQE80L-Navi), N-terminal, kept
T2 sequence (looked up): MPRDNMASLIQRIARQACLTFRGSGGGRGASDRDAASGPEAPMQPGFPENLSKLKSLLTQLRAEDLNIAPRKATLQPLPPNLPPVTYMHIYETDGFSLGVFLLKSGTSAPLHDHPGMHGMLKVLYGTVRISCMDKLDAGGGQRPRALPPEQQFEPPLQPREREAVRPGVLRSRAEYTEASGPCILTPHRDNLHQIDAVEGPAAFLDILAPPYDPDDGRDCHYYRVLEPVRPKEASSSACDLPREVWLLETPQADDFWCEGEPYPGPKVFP

[3] = target: T3, ADO-D206E, N-terminally His-tagged and biotinylated (human, UniProt Q96SZ5 1-270, D206E, biotin (biotinylated during expression))
T3 construct: 2-aminoethanethiol dioxygenase (ADO), human, UniProt Q96SZ5, full length, site-directed mutant; source: E. coli Rosetta2(DE3), purified (Ni-NTA, SEC); not shown: biotinylation tag (from the vector pQE80L-Navi), N-terminal, kept
T3 sequence (looked up): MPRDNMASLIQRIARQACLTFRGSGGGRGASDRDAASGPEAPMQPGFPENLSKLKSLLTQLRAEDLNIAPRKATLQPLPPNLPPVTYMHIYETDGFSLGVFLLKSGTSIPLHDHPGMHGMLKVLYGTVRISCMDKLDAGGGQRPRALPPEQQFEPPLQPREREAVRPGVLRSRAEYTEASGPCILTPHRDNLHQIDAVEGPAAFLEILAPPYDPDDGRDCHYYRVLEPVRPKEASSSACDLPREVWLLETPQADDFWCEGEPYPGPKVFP

[4] = target: T4, ADO-Y212F, N-terminally His-tagged and biotinylated (human, UniProt Q96SZ5 1-270, Y212F, biotin (biotinylated during expression))
T4 construct: 2-aminoethanethiol dioxygenase (ADO), human, UniProt Q96SZ5, full length, site-directed mutant; source: E. coli Rosetta2(DE3), purified (Ni-NTA, SEC); not shown: biotinylation tag (from the vector pQE80L-Navi), N-terminal, kept
T4 sequence (looked up): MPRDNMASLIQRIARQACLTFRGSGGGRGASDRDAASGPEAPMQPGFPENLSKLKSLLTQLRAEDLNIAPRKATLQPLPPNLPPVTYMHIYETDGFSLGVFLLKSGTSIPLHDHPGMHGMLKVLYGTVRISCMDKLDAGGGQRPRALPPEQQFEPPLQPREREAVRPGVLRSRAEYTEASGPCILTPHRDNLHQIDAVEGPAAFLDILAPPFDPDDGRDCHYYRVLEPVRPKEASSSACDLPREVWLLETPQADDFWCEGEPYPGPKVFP

[5] = target: T5, ADO-Y222A, N-terminally His-tagged and biotinylated (human, UniProt Q96SZ5 1-270, Y222A, biotin (biotinylated during expression))
T5 construct: 2-aminoethanethiol dioxygenase (ADO), human, UniProt Q96SZ5, full length, site-directed mutant; source: E. coli Rosetta2(DE3), purified (Ni-NTA, SEC); not shown: biotinylation tag (from the vector pQE80L-Navi), N-terminal, kept
T5 sequence (looked up): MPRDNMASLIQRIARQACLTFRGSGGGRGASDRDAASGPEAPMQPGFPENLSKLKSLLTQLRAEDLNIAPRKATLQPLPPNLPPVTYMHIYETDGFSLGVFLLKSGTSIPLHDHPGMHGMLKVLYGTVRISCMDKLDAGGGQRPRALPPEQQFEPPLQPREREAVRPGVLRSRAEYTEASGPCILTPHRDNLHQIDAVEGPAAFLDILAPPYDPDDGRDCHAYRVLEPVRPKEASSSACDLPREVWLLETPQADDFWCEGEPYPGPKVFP

- Kd [1]: 1480 nM and 1650 nM and 1840 nM
- Kd [2]: 1120 nM and 1240 nM and 1430 nM
- Kd [3]: 1190 nM and 997 nM and 1060 nM
- Kd [4]: 19800 nM and 24500 nM and 29200 nM
- Kd [5]: 4420 nM and 4800 nM and 4780 nM
B1: RGS5(2-15), synthetic peptide corresponding to the methionine excised N-terminus of RGS5, residues 2 to 15 (peptide, UniProt O15539 2-15, looked up)
peptide: CKGLAALPHSCLER
notes: regulator of G-protein signalling 5 (RGS5), residues 2 to 15 (N-terminal Cys exposed); UniProt O15539 is printed for the full-length human protein; also called 14-mer RGS5; source: synthetic peptide
